# Test results as given in patent publication US20120023600A1 (Novartis, published 2012).
# T1: recombinant human DKK1 (human, UniProt O94907 32-266)
# T1 construct: also called Dickkopf-1; rhDKK1
# T1 sequence: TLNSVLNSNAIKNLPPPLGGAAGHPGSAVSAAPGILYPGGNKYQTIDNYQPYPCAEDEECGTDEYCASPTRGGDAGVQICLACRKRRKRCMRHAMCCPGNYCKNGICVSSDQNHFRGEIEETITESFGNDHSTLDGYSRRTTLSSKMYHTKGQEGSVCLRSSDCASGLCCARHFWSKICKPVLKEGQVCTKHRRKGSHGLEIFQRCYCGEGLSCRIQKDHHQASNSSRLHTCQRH
# T2: mouse DKK1 (R&D Systems) (mouse, UniProt O54908 32-272)
# T2 construct: Bought protein
# T2 sequence (looked up): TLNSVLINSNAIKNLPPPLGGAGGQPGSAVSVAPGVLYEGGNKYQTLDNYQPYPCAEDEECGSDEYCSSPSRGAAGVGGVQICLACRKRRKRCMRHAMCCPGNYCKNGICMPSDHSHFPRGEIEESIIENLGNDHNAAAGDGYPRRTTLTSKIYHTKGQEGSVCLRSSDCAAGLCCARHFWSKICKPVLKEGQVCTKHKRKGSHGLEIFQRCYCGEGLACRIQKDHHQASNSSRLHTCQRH
# T3: cynomolgus DKK1 (cynomolgus monkey (Macaca fascicularis), UniProt A0A7N9IE82 32-266)
# T3 construct: also called cyno DKK1; monkey DKK1 (Novartis)
# T3 sequence: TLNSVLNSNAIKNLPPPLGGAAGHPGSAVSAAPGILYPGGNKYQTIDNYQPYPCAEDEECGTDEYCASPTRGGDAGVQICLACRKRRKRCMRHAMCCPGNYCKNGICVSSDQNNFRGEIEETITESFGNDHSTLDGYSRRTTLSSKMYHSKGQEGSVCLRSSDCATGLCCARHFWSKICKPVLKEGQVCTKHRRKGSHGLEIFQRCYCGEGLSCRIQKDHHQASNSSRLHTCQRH
# T4: rat DKK1 (Novartis) (rat, UniProt A6I0Z0 32-270)
# T4 sequence: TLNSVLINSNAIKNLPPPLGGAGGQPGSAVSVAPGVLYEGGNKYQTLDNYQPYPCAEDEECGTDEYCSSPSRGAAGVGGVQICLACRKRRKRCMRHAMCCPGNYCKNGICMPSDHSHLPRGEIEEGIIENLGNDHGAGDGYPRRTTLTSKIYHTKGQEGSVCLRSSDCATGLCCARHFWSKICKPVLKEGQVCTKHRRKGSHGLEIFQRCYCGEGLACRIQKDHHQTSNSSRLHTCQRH
# T5: DKK1-APP (human, UniProt O94907 32-266)
# T5 sequence: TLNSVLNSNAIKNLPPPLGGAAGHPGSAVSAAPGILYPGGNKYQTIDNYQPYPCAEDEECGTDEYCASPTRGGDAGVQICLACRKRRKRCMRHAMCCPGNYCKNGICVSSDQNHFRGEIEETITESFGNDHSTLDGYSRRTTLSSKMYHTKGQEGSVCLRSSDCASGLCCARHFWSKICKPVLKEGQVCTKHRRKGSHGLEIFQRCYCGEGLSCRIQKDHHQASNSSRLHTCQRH
# What was measured:
# [1] = molecular target: T1, recombinant human DKK1; test: solution equilibrium titration (SET), ECL (BioVeris), IgG
# Source text: (§1) Electrochemiluminescence (ECL) based affinity determination in solution and data evaluation are basically performed as described by [Haenel et al., 2005], the binding fit model is applied as modified according to [Piehler et al., 1997]). […] Biotinylated human. […] Subsequently, the concentration of unbound. IgG is quantified via ECL detection using the M-384 SERIES® analyzer (BioVeris, Europe).
# [2] = molecular target: T2, mouse DKK1 (R&D Systems); test: as above
# Source text: as §1
# [3] = molecular target: T3, cynomolgus DKK1; test: as above
# Source text: as §1
# [4] = molecular target: T4, rat DKK1 (Novartis); test: as above
# Source text: as §1
# [5] = molecular target: T5, DKK1-APP; test: cell-based or functional assay
# [6] = molecular target: T5, DKK1-APP; test: cell-based or functional assay; remark: listed apart in the source
# [7] = molecular target: T2, mouse DKK1 (R&D Systems); test: Cross-reactivity mouse (grade in Table 4)
# [8] = molecular target: T1, recombinant human DKK1; test: SPR (Biacore), DKK1 immobilised on CM5 chip, Fab as analyte
# Experimental: (§2) Using these clones, kinetic SPR analysis is performed on a. […] The Fab preparations are applied in concentration series of 16-500 nM at a flow rate of 20 μl/min. Association phase is set to 60 s and dissociation phase to 120 s.
# [9] = molecular target: T3, cynomolgus DKK1; test: as above
# Experimental: as §2
# [10] = molecular target: T1, recombinant human DKK1; test: as above; remark: listed apart in the source
# Experimental: as §2
# [11] = molecular target: T3, cynomolgus DKK1; test: as above; remark: listed apart in the source
# Experimental: as §2
# [12] = molecular target: T1, recombinant human DKK1; test: as above; remark: listed apart in the source
# Experimental: as §2
# [13] = molecular target: T3, cynomolgus DKK1; test: as above; remark: listed apart in the source
# Experimental: as §2
Kd [1],Kd [2],Kd [3],Kd [4],Luciferase reporter assay; EC50 [5],EC50 [6],binding result [7],Kd [8],Kd [9],Kd [10],Kd [11],Kd [12],Kd [13],Binder
0.017 nM,0.01 nM,7 pM,0.016 nM,,,,,,,,,,"MOR4910 IgG (antibody, V domains shown, also called MOR04910 IgG) VH: QVQLVESGGGLVQPGGSLRLSCAASGFTFSSYWMSWVRQAPGKGLEWVSGISYSGSNTHYADSVKGRFTISRDNSKNTLYLQMNSLRAEDTAVYYCARMGIDLDYWGQGTLVTVSS VL: DIALTQPASVSGSPGQSITISCTGTSSDVGGFNYVSWYQQHPGKAPKLMIHDGSNRPSGVSNRFSGSKSGNTASLTISGLQAEDEADYYCQSWDVSPITAVFGGGTKLTVLG"
,,,,39 nM,39 nM,binds,1.6 nM,1.5 nM,1.6 nM,1.5 nM,1.6 nM,1.5 nM,"MOR04455 (Fab, V domains shown, Fab with C-terminal FLAG and 6xHis tags) VH: QVQLVESGGGLVQPGGSLRLSCAASGFTFSSYGMSWVRQAPGKGLEWVSGISGSGSYTYYADSVKGRFTISRDNSKNTLYLQMNSLRAEDTAVYYCARHYMDHWGQGTLVTVSS VL: DIQMTQSPSSLSASVGDRVTITCRASQDISNYLHWYQQKPGKAPKLLIYGASNLQSGVPSRFSGSGSGTDFTLTISSLQPEDFAVYYCQQYDSIPMTFGQGTKVEIKR"
